The assay has as its system 33 normal human tissues. Kind of assay: Immunohistochemistry on a normal tissue microarray (specificity). The note with it: 33 normal tissues, 2-3 human donors per tissue. The protocol:
The specificity of the chAB2 antibody for Sp17 was determined with immunohistochemistry on a normal tissue microarray, which consisted of 33 normal tissues obtained from 2-3 human donors per tissue. The normal tissues included brain, eye, adrenal gland, hypophyseal, thyroid, parathyroid, tonsil, thymus, spleen, heart, lung, larynx, esophagus, stomach, small intestine, colon, liver, pancreas, salivary gland, kidney, bone, skeletal, skin, peripheral nerve, mesothelial, breast, ovary, endometrium, cervix, testis, and prostate.

Here are results for one molecule from patent publication US12319747B2, “Methods of using anti-SP17 immunotherapeutics” (Medicovestor, Inc., priority 2023, dated 2025).

Entries after “also recorded” stand apart in the source; their conditions may differ.

B1: chAB2: mouse-human chimeric anti-Sp17 monoclonal antibody; human VH/VL (SEQ ID NO: 3, 4) in mouse IgG2a heavy chain and mouse kappa light chain (antibody, V domains shown)
VH: QVQLQQSGAEVKKPGSSVKVSCKASGGTFSSYAISWVRQAPGQGLEWMGRIIPILGIANYAQKFQGRVTITADKSTSTAYMELSSLRSEDTAVYYCARPSEEVVAAYGAFDIWGQGTTVTVSS
VL: EIVLTQSPLSLPVRPGEPASISCRASQSLLRSDGFNYLDWYLQKPGQSPQLLVYLGSNRASGVPDRFSGSGSGTDFTLKISRVEAEDVGVYYCMQAVQTPYIFGQGTKLEIK
modifications: mouse IgG2a and kappa constant regions
On to B1, for which the “binding to normal human tissues / cross-reactivity” value is “bound to testis and did not bind to normal tissues; also recorded: lack detectable cross-reactivity”.
